Data published in patent US20240400630A1.

How the values were obtained:
[1] = target: IL-15R on human PBMCs (NK cells, CD8+ T cells, CD4+ T cells) (human); assay: cell-based or functional assay
[2] = target: IL-2/IL-15 receptor on IL-2/IL-15-responsive HEK293 cells (human CD25 (IL-2Rα), CD122 (IL-2Rβ), CD132 (IL-2Rγ)) (human) (UniProt P01589); assay: cell-based or functional assay
IL-2/IL-15 receptor on IL-2/IL-15-responsive HEK293 cells (human CD25 (IL-2Rα), CD122 (IL-2Rβ), CD132 (IL-2Rγ)) (human), sequence (P01589 22-272, chain 1 of 3): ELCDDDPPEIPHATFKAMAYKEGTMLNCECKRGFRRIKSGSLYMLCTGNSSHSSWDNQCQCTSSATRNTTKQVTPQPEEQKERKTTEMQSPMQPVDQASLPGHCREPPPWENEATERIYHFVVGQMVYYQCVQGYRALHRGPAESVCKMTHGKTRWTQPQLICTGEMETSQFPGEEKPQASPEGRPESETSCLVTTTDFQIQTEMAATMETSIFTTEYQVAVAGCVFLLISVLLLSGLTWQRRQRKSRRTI
IL-2/IL-15 receptor on IL-2/IL-15-responsive HEK293 cells (human CD25 (IL-2Rα), CD122 (IL-2Rβ), CD132 (IL-2Rγ)) (human), sequence (P14784 27-551, chain 2 of 3, further chain): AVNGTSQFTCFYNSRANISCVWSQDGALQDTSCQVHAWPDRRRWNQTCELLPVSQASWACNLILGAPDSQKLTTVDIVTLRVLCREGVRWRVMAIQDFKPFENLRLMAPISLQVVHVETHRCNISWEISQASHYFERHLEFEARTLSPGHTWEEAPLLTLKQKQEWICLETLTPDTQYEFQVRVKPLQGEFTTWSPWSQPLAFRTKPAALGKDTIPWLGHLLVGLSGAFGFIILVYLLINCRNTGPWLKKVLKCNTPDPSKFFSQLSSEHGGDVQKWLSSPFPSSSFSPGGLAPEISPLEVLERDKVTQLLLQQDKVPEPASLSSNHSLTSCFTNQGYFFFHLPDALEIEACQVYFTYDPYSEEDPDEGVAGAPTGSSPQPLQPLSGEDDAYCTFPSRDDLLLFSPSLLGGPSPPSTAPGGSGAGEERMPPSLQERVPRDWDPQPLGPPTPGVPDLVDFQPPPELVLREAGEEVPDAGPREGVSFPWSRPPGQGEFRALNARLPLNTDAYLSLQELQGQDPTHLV
IL-2/IL-15 receptor on IL-2/IL-15-responsive HEK293 cells (human CD25 (IL-2Rα), CD122 (IL-2Rβ), CD132 (IL-2Rγ)) (human), sequence (P31785 23-369, chain 3 of 3, further chain): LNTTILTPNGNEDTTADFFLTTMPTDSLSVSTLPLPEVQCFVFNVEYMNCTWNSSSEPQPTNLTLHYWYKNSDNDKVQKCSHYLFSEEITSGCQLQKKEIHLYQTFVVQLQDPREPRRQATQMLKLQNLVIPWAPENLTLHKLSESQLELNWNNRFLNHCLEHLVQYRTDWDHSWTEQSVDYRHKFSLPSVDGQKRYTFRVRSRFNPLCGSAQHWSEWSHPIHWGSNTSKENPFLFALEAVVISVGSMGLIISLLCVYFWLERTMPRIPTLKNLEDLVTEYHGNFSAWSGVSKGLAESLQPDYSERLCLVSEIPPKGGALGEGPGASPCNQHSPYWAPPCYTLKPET

- EC50: Human PBMC Proliferation Ki67, CD4 [1]: 121 pM
- EC50: Human PBMC Proliferation Ki67, CD8 [1]: 221 pM
- EC50: Human PBMC Proliferation Ki67, NK Cells [1]: 4 pM
- EC50: Human PBMC STAT5 Phosphorylation, CD4 [1]: 6.97 pM
- EC50: Human PBMC STAT5 Phosphorylation, CD8 [1]: 6.4 pM
- EC50: Human PBMC STAT5 Phosphorylation, NK cells [1]: 1.79 pM
- EC50: HEK-Blue Reporter Assay [2]: 1.48 pM
- EC50: HEK-Blue Reporter Assay (average, n>3) [2]: 1.46 pM
Substance: PeproTech IL-15 (Recombinant human IL-15, available from PeproTech, Catalog #200-15) (from UniProt P40933 49-162) (ligand)
